Experiment [1] addresses T1, human complement protein C6 (human, UniProt P13671 22-934).
T1 construct: also called human C6; C6 antigen
Nature of the experiment: C6-binding ELISA, A650 nm; sample 'PBS' (28 days at 37 C). The procedure:
(§1) For the serum stability assessment, samples of the purified candidate antibodies are normally incubated in mouse, human and cynomolgus serum at 37 C for 28 days and then tested in an antigen-binding ELISA. Since the anti-C6 antibodies are expected to bind to both human and cynomolgus C6 but not mouse C6, we anticipated that incubating in human or cynomolgus sera would reduce ELISA binding due to occupation of the antibody binding sites by C6 protein from the sera. Therefore, the chimeric and humanized antibodies were tested with human and mouse sera and with human sera from which the C6 protein has been depleted. […]
(§2) Binding ELISAs used Nunc Maxisorp 384-well plates, wells coated with C6, C5b,6 complex or C5 (Complement Technology Inc, TX) and goat anti-human IgG (Fab specific) peroxidase secondary antibodies (Sigma-Aldrich, A0293) for detection. For the thermal stability assay, IgG supernatants were diluted to their EC₈₀ concentration, incubated at different temperatures for 10 min and C6 binding measured by ELISA with the binding signal plotted against temperature. Kinetics of C6 binding were measured by capturing antibodies from supernatant samples using Protein G biosensors and performing a 20 min association step with 2.5 nM C6 and a 20 min dissociation step using the Octet RED96. […]
(In general: In an ELISA, binding on a coated surface is turned into a signal by an enzyme label.)

Experiment [2] concerns the target T1, human complement protein C6. Briefly: C6-binding ELISA, A650 nm; sample 'C6-depleted human serum' (28 days at 37 C). The procedure:
(§3) For the serum stability assessment, samples of the purified candidate antibodies are normally incubated in mouse, human and cynomolgus serum at 37 C for 28 days and then tested in an antigen-binding ELISA. Since the anti-C6 antibodies are expected to bind to both human and cynomolgus C6 but not mouse C6, we anticipated that incubating in human or cynomolgus sera would reduce ELISA binding due to occupation of the antibody binding sites by C6 protein from the sera. Therefore, the chimeric and humanized antibodies were tested with human and mouse sera and with human sera from which the C6 protein has been depleted. The C6-binding ELISA was then used to compare the binding abilities of the C601 antibodies that had been incubated in the 3 different sera to antibody samples that were incubated in PBS at 37 C or kept at 4 C (non-incubated).
(§4) The Uncle instrument (Unchained Labs) was used to monitor unfolding via intrinsic fluorescence and aggregation by static light scattering across a temperature gradient to obtain melting temperatures (Tₘ). […] Isoelectric points were determined by capillary isoelectric focusing using a PA800+ (Beckman Coulter). […]

For experiment [3] the target is unchanged. Nature of the experiment: C6-binding ELISA, A650 nm; sample 'human serun' (human serum, 28 days at 37 C). The procedure:
as §1, §2

For experiment [4] the target is unchanged. Briefly: C6-binding ELISA, A650 nm; sample 'PBS' (28 days at 37 C). The method, then: as §3, §4
The source holds these as a separate data set.

The target is the same in experiment [5]. Briefly: BLI (Octet), antibody on Protein G biosensors, 1:1 fit, experiment 2. (In BLI a coated tip is dipped into the sample, and binding shifts an interference pattern.)
Experiment [6] shares this target. Briefly: C6-binding ELISA, A650 nm; sample 'PBS, non-incubated' (kept at 4 C). The procedure:
as §3, §4

T1 sequence (P13671 22-934 limits assumed): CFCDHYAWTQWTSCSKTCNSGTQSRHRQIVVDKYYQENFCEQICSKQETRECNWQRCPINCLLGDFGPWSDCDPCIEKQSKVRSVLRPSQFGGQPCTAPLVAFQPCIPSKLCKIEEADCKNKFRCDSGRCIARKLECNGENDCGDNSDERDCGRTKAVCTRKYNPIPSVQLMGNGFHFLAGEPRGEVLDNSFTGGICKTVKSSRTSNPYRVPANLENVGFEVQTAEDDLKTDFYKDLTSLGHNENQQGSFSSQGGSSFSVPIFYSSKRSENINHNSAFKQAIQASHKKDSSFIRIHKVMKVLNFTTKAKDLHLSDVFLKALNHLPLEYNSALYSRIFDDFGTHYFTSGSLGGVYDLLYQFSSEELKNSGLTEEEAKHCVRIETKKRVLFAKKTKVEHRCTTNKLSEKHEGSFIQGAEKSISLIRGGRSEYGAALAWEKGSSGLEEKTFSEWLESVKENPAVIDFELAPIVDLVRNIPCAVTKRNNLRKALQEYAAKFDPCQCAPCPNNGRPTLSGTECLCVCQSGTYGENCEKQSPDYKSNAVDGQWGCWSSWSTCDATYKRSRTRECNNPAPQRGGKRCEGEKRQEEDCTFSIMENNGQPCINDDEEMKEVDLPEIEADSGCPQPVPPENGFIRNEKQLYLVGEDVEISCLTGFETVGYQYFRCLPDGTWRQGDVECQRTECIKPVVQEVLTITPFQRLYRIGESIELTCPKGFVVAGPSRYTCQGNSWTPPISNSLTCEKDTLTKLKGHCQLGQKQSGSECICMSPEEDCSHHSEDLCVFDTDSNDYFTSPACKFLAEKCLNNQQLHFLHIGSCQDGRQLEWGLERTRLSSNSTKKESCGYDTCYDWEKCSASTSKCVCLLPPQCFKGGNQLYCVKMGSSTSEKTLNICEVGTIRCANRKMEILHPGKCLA

B1: C601HFKC4 HuG4K (antibody, human IgG4 S228P, kappa)
heavy: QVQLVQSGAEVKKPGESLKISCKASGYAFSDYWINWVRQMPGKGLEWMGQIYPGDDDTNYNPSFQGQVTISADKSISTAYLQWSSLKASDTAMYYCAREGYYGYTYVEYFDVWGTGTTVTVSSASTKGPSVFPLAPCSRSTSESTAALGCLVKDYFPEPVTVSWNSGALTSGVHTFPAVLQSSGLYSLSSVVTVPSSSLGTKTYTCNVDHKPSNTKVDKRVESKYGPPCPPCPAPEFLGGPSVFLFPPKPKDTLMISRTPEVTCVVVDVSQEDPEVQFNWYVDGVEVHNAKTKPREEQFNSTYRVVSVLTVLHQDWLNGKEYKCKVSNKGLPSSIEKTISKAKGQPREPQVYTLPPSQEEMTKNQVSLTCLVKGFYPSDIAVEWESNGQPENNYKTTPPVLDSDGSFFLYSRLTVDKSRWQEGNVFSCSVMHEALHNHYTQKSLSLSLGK
light: QIVLTQSPATLSLSPGERATLSCRASSSVSYLHWYQQKPGQSPRLWIYDTSKRATGIPARFSGSGSGTDYTLTISSLEPEDFAVYYCQQWTSNPLTFGQGTKLEIKRTVAAPSVFIFPPSDEQLKSGTASVVCLLNNFYPREAKVQWKVDNALQSGNSQESVTEQDSKDSTYSLSSTLTLSKADYEKHKVYACEVTHQGLSSPVTKSFNRGEC
notes: also called 3713; clone 3713
Regarding B1, the 50% effective concentration (EC50) in experiment [1] came to 0.19 nM; in experiment [2], 0.17 nM; in experiment [3], 0.19 nM.

B2: MoC601 HuG4K (chimeric C601 antibody) (antibody, human IgG4 S228P, kappa, V domains shown)
VH: QVQLQQSGAELVKPGASVKISCKASGYAFSDYWMNWVKQRPGKGLEWIGQIYPGDDDTNYNGKFKGKATLTADKSSSTAYMQLSSLTSEDSAVYFCAREGYYGYTYVEYFDVWGTGTTVTVSS
VL: QIVLTQSPAIMSVSPGEKVTLTCSASSSVSYMHWYQQKSGTSPKRWIYDTSKLASGVPARFSGSGSGTSYSLTISSMEAEDAATYYCQQWTSNPLTFGAGTKLELRR
notes: also called chimeric antibody; chimeric 1C9
As to B2, the response in experiment [4] was half-maximal at 0.19 nM (EC50). In experiment [5], this molecule displayed a dissociation constant Kd of 0.35 nM, a koff of 0.00024 s⁻¹ and a kon of 690000 M⁻¹ s⁻¹. This molecule also registered an EC50 in experiment [6] of 0.18 nM.

What is called EC50 is the concentration giving half of the maximal effect. Lower therefore signals a more potent agent. As a reminder, the Kd is the free concentration of one partner at which half of the binding sites on the other are occupied at equilibrium, for simple one-to-one binding. The low end stands for a tighter complex, the high end for a looser complex. As usually defined, the koff is a measure of how fast the partners let go of each other. Read a low koff as a long-lived complex. Broadly, the kon is the second-order rate constant of association. Low readings indicate slow association, high ones fast association.

The record behind these values is US20260125455A1 (CLEVELAND CLINIC FOUNDATION, published 2026).
